Experimental data published in patent US11230581B2, “Peptides and combination of peptides for use in immunotherapy against ovarian cancer and other cancers” (Immatics Biotechnologies GmbH, priority 2015, dated 2022).

What follows are substances tested against HLA-A*02:01 (Homo sapiens, UniProt P04439, D140Y/D185E/D98H/E176V/E277Q/G131W/G231S/I119V/I121R/I166T/I218V/L300P/L318F/N151K/N90K/P208A/P217A/Q86G/Q94H/R138H/R169H/T345S) (assay: MHC binding assay (UV-ligand exchange, β2m ELISA, peptide exchange yield)). Conditions: binding of HLA-class I restricted peptides to HLA-A*02:01, UV-ligand exchange.
Source text: Candidate peptides for T cell based therapies according to the present invention were further tested for their MHC binding capacity (affinity). The individual peptide-MHC complexes were produced by UV-ligand exchange, where a UV-sensitive peptide is cleaved upon UV-irradiation, and exchanged with the peptide of interest as analyzed. Only peptide candidates that can effectively bind and stabilize the peptide-receptive MHC molecules prevent dissociation of the MHC complexes. To determine the yield of the exchange reaction, an ELISA was performed based on the detection of the light chain (β2m) of stabilized MHC complexes. The assay was performed as generally described in Rodenko et al. (Rodenko et al., 2006).
96 well MAXISorp plates (NUNC) were coated over night with 2 ug/ml streptavidin in PBS at room temperature, washed 4× and blocked for 1h at 37° C. in 2% BSA containing blocking buffer. […] Peptide-MHC monomers of the UV-exchange reaction were diluted 100 fold in blocking buffer. Samples were incubated for 1 h at 37° C., washed four times, incubated with 2 ug/ml HRP conjugated anti-β2m for 1h at 37° C., washed again and detected with TMB solution that is stopped with […]. Absorption was measured at 450 nm. Candidate peptides that show a high exchange yield (preferably higher than 50%, most preferred higher than 75%) are generally preferred for a generation and production of antibodies or fragments thereof, and/or T cell receptors or fragments thereof, as they show sufficient avidity to the MHC molecules and prevent dissociation of the MHC complexes.

| Peptide exchange (MHC class I binding score, peptide exchange yield) | Substance |
| --- | --- |
| “++++” (≥75% = ++++) | 321 (GLFEDVTQPGILL; listed as Homo sapiens) [compound 321] |
| “+++” (≥50 = +++) | 35 (KINDTIYEV; listed as Homo sapiens) [compound 35] |
| “++++” (≥75% = ++++) | 553 (SLLNQDLHWSL; listed as Homo sapiens) [compound 553] |
| “+++” (≥50 = +++) | 2 (SLLEADPFL; listed as Homo sapiens) [compound 2] |
| “+++” (≥50 = +++) | 366 (RLLDMGETDLML; listed as Homo sapiens) [compound 366] |
| “++” (≥20% = ++) | 566 (VIADGGIQNV; listed as Homo sapiens) [compound 566] |
| “+++” (≥50 = +++) | 302 (ALLQEGEVYSA; listed as Homo sapiens) [compound 302] |
| “++” (≥20% = ++) | 385 (SLLEQGLVEA; listed as Homo sapiens) [compound 385] |
| “+++” (≥50 = +++) | 394 (LLAVIGGLVYL; listed as Homo sapiens) [compound 394] |
| “++” (≥20% = ++) | 579 (NLMEMVAQL; listed as Homo sapiens) [compound 579] |
| “+++” (≥50 = +++) | 49 (YLPAVFEEV; listed as Homo sapiens) [compound 49] |
| “+++” (≥50 = +++) | 193 (QLLDADGFLNV; listed as Homo sapiens) [compound 193] |
| “++” (≥20% = ++) | 505 (SLAPGDVVRQV; listed as Homo sapiens) [compound 505] |
| “+++” (≥50 = +++) | 465 (QLCDLNAEL; listed as Homo sapiens) [compound 465] |
| “+++” (≥50 = +++) | 155 (RVANLHFPSV; listed as Homo sapiens) [compound 155] |
| “+++” (≥50 = +++) | 66 (FLDENIGGVAV; listed as Homo sapiens) [compound 66] |
| “+++” (≥50 = +++) | 481 (GLIEDYEALL; listed as Homo sapiens) [compound 481] |
| “+++” (≥50 = +++) | 306 (ALVNVQIPL; listed as Homo sapiens) [compound 306] |
| “++” (≥20% = ++) | 204 (KIAENVEEV; listed as Homo sapiens) [compound 204] |
| “+++” (≥50 = +++) | 40 (TLLVKVFSV; listed as Homo sapiens) [compound 40] |
| “+++” (≥50 = +++) | 298 (VMITKLVEV; listed as Homo sapiens) [compound 298] |

| Peptide exchange (MHC class I binding score, peptide exchange yield) | Substance |
| --- | --- |
| “+++” (≥50 = +++) | 500 (SLMEDQVLQL; listed as Homo sapiens) [compound 500] |
| “+++” (≥50 = +++) | 597 (KLLEGQVIQL; listed as Homo sapiens) [compound 597] |
| “++” (≥20% = ++) | 511 (FLDPYCSASV; listed as Homo sapiens) [compound 511] |
| “+++” (≥50 = +++) | 136 (YLADPSNLFVV; listed as Homo sapiens) [compound 136] |
| “++” (≥20% = ++) | 458 (SLIDKLYNI; listed as Homo sapiens) [compound 458] |
| “+++” (≥50 = +++) | 297 (VLADIELAQA; listed as Homo sapiens) [compound 297] |
| “+++” (≥50 = +++) | 593 (GLPRFGIEMV; listed as Homo sapiens) [compound 593] |
| “+++” (≥50 = +++) | 493 (GLLGEKTQDLIGV; listed as Homo sapiens) [compound 493] |
| “+++” (≥50 = +++) | 118 (KLIDNNINV; listed as Homo sapiens) [compound 118] |
| “+++” (≥50 = +++) | 79 (SLFIGEKAVLL; listed as Homo sapiens) [compound 79] |
| “++” (≥20% = ++) | 233 (VLSETLYEL; listed as Homo sapiens) [compound 233] |
| “+++” (≥50 = +++) | 103 (TLAEEVVAL; listed as Homo sapiens) [compound 103] |
| “+++” (≥50 = +++) | 529 (LLADELITV; listed as Homo sapiens) [compound 529] |
| “+++” (≥50 = +++) | 322 (TLMTSLPAL; listed as Homo sapiens) [compound 322] |
| “++++” (≥75% = ++++) | 289 (VLLEIEDLQV; listed as Homo sapiens) [compound 289] |
| “++” (≥20% = ++) | 228 (AMQEYIAVV; listed as Homo sapiens) [compound 228] |
| “+++” (≥50 = +++) | 430 (HLYSSIEHLTT; listed as Homo sapiens) [compound 430] |
| “+++” (≥50 = +++) | 309 (GLFDGVPTTA; listed as Homo sapiens) [compound 309] |
| “+++” (≥50 = +++) | 20 (RMIEYFIDV; listed as Homo sapiens) [compound 20] |
| “++” (≥20% = ++) | 32 (KLDDLTQDLTV; listed as Homo sapiens) [compound 32] |
| “+++” (≥50 = +++) | 547 (TLDITPHTV; listed as Homo sapiens) [compound 547] |

| Peptide exchange (MHC class I binding score, peptide exchange yield) | Substance |
| --- | --- |
| “+++” (≥50 = +++) | 484 (SLIEKVTQL; listed as Homo sapiens) [compound 484] |
| “++++” (≥75% = ++++) | 137 (TLVLTLPTV; listed as Homo sapiens) [compound 137] |
| “++” (≥20% = ++) | 318 (GLINTGVLSV; listed as Homo sapiens) [compound 318] |
| “+++” (≥50 = +++) | 276 (ALFTFSPLTV; listed as Homo sapiens) [compound 276] |
| “++” (≥20% = ++) | 389 (LLADVTHLL; listed as Homo sapiens) [compound 389] |
| “+++” (≥50 = +++) | 496 (FLVEKQPPQV; listed as Homo sapiens) [compound 496] |
| “+++” (≥50 = +++) | 152 (ILFEDIFDV; listed as Homo sapiens) [compound 152] |
| “+++” (≥50 = +++) | 72 (SLLELDGINL; listed as Homo sapiens) [compound 72] |
| “+++” (≥50 = +++) | 356 (KLLGKLPEL; listed as Homo sapiens) [compound 356] |
| “+++” (≥50 = +++) | 439 (YLLQEIYGI; listed as Homo sapiens) [compound 439] |
| “+++” (≥50 = +++) | 285 (QLLHVGVTV; listed as Homo sapiens) [compound 285] |
| “++” (≥20% = ++) | 226 (MLYVVPIYL; listed as Homo sapiens) [compound 226] |
| “+++” (≥50 = +++) | 399 (YLFEPLYHV; listed as Homo sapiens) [compound 399] |
| “+++” (≥50 = +++) | 301 (FLVEDLVDSL; listed as Homo sapiens) [compound 301] |
| “+++” (≥50 = +++) | 427 (ALLPLSPYL; listed as Homo sapiens) [compound 427] |
| “+++” (≥50 = +++) | 299 (YLLETSGNL; listed as Homo sapiens) [compound 299] |
| “++” (≥20% = ++) | 94 (YLIDIKTIAI; listed as Homo sapiens) [compound 94] |
| “+++” (≥50 = +++) | 478 (YLLHEKLNL; listed as Homo sapiens) [compound 478] |
| “+++” (≥50 = +++) | 512 (SLSEIVPCL; listed as Homo sapiens) [compound 512] |
